Experiments:
[1] = molecular target: AV2 protein of tomato leaf curl Palampur virus, untagged, in N. benthamiana leaves (Tomato leaf curl Palampur virus); assay: SDS-PAGE and western blot; leaf extracts of N. benthamiana (PVX-infiltrated at 14 dpi, ToLCPalV-infected, TRV-infiltrated), boiled 5 minutes, 10% SDS-PAGE, detection with AV2 antiserum; dimer told from the band's size
[2] = molecular target: AV2Δ10N, untagged, from PVX-AV2Δ10N in N. benthamiana leaves (Tomato leaf curl Palampur virus); assay: as above

AV2 protein of tomato leaf curl Palampur virus, untagged, in N. benthamiana leaves (natural protein)
stoichiometry N [1]: 2

AV2Δ10N, untagged, from PVX-AV2Δ10N in N. benthamiana leaves (domain or fragment)
stoichiometry N [2]: 2
